*1 amine or outer side, *2 acyl side, *3 side chain or, on linkers, in order; H or OH if unused. Side-chain parts run from the residue outwards. The star is where a group is joined. C18 diacid = O=C(O)CCCCCCCCCCCCCCCCC(=O)*; γGlu = O=C(O)[C@H](CCC(=O)[*:2])N[*:1]; Isovaleryl = CC(C)CC(=O)*; Ahx = NCCCCCC(=O)O
T1: human NPY2 receptor (human, UniProt P49146 1-381)
T1 construct: whole, on cells; also called hNPY2-R; hNPY2R
T1 sequence (looked up): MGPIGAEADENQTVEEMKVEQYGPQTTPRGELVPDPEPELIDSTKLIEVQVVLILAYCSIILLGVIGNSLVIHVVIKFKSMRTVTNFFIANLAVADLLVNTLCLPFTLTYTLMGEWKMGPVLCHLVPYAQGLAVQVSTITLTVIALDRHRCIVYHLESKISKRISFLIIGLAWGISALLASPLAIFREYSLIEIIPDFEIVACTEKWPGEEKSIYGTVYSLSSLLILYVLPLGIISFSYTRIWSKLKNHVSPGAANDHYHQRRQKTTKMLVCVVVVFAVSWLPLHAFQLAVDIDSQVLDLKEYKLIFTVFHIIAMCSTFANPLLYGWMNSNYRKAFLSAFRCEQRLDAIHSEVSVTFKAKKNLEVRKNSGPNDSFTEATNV


target: T1, human NPY2 receptor; assay: RLB: displacement of 125I-PYY(1-36) from hNPY2R membranes

| Ki [nM] | Binder |
| --- | --- |
| 5.86 | Isovaleryl-APEK([Ahx-γGlu-C18 diacid])PEEDATPEELQRYYVGLRHYYNWLTRQRY-NH2 (SMILES CC(C)CC(=O)N[C@@H](C)C(=O)N1CCC[C@H]1C(=O)N[C@@H](CCC(=O)O)C(=O)N[C@@H](CCCCNC(=O)CCCCCNC(=O)CC[C@H](NC(=O)CCCCCCCCCCCCCCCCC(=O)O)C(=O)O)C(=O)N1CCC[C@H]1C(=O)N[C@@H](CCC(=O)O)C(=O)N[C@@H](CCC(=O)O)C(=O)N[C@@H](CC(=O)O)C(=O)N[C@@H](C)C(=O)N[C@H](C(=O)N1CCC[C@H]1C(=O)N[C@@H](CCC(=O)O)C(=O)N[C@@H](CCC(=O)O)C(=O)N[C@@H](CC(C)C)C(=O)N[C@@H](CCC(N)=O)C(=O)N[C@@H](CCCNC(=N)N)C(=O)N[C@@H](Cc1ccc(O)cc1)C(=O)N[C@@H](Cc1ccc(O)cc1)C(=O)N[C@H](C(=O)NCC(=O)N[C@@H](CC(C)C)C(=O)N[C@@H](CCCNC(=N)N)C(=O)N[C@@H](Cc1c[nH]cn1)C(=O)N[C@@H](Cc1ccc(O)cc1)C(=O)N[C@@H](Cc1ccc(O)cc1)C(=O)N[C@@H](CC(N)=O)C(=O)N[C@@H](Cc1c[nH]c2ccccc12)C(=O)N[C@@H](CC(C)C)C(=O)N[C@H](C(=O)N[C@@H](CCCNC(=N)N)C(=O)N[C@@H](CCC(N)=O)C(=O)N[C@@H](CCCNC(=N)N)C(=O)N[C@@H](Cc1ccc(O)cc1)C(N)=O)[C@@H](C)O)C(C)C)[C@@H](C)O) [Compound 44] |
| 1.54 | Isovaleryl-APAK([Ahx-γGlu-C18 diacid])PEEAATPEELQRYYISLRHYYNWLTRQRY-NH2 (SMILES CC[C@H](C)[C@H](NC(=O)[C@H](Cc1ccc(O)cc1)NC(=O)[C@H](Cc1ccc(O)cc1)NC(=O)[C@H](CCCNC(=N)N)NC(=O)[C@H](CCC(N)=O)NC(=O)[C@H](CC(C)C)NC(=O)[C@H](CCC(=O)O)NC(=O)[C@H](CCC(=O)O)NC(=O)[C@@H]1CCCN1C(=O)[C@@H](NC(=O)[C@H](C)NC(=O)[C@H](C)NC(=O)[C@H](CCC(=O)O)NC(=O)[C@H](CCC(=O)O)NC(=O)[C@@H]1CCCN1C(=O)[C@H](CCCCNC(=O)CCCCCNC(=O)CC[C@H](NC(=O)CCCCCCCCCCCCCCCCC(=O)O)C(=O)O)NC(=O)[C@H](C)NC(=O)[C@@H]1CCCN1C(=O)[C@H](C)NC(=O)CC(C)C)[C@@H](C)O)C(=O)N[C@@H](CO)C(=O)N[C@@H](CC(C)C)C(=O)N[C@@H](CCCNC(=N)N)C(=O)N[C@@H](Cc1c[nH]cn1)C(=O)N[C@@H](Cc1ccc(O)cc1)C(=O)N[C@@H](Cc1ccc(O)cc1)C(=O)N[C@@H](CC(N)=O)C(=O)N[C@@H](Cc1c[nH]c2ccccc12)C(=O)N[C@@H](CC(C)C)C(=O)N[C@H](C(=O)N[C@@H](CCCNC(=N)N)C(=O)N[C@@H](CCC(N)=O)C(=O)N[C@@H](CCCNC(=N)N)C(=O)N[C@@H](Cc1ccc(O)cc1)C(N)=O)[C@@H](C)O) [Compound 48] |
| 2.59 | Isovaleryl-APEK([Ahx-γGlu-C18 diacid])PEEDATPEELQRYYVQLRHYYNWLTRQRY-NH2 (SMILES CC(C)CC(=O)N[C@@H](C)C(=O)N1CCC[C@H]1C(=O)N[C@@H](CCC(=O)O)C(=O)N[C@@H](CCCCNC(=O)CCCCCNC(=O)CC[C@H](NC(=O)CCCCCCCCCCCCCCCCC(=O)O)C(=O)O)C(=O)N1CCC[C@H]1C(=O)N[C@@H](CCC(=O)O)C(=O)N[C@@H](CCC(=O)O)C(=O)N[C@@H](CC(=O)O)C(=O)N[C@@H](C)C(=O)N[C@H](C(=O)N1CCC[C@H]1C(=O)N[C@@H](CCC(=O)O)C(=O)N[C@@H](CCC(=O)O)C(=O)N[C@@H](CC(C)C)C(=O)N[C@@H](CCC(N)=O)C(=O)N[C@@H](CCCNC(=N)N)C(=O)N[C@@H](Cc1ccc(O)cc1)C(=O)N[C@@H](Cc1ccc(O)cc1)C(=O)N[C@H](C(=O)N[C@@H](CCC(N)=O)C(=O)N[C@@H](CC(C)C)C(=O)N[C@@H](CCCNC(=N)N)C(=O)N[C@@H](Cc1c[nH]cn1)C(=O)N[C@@H](Cc1ccc(O)cc1)C(=O)N[C@@H](Cc1ccc(O)cc1)C(=O)N[C@@H](CC(N)=O)C(=O)N[C@@H](Cc1c[nH]c2ccccc12)C(=O)N[C@@H](CC(C)C)C(=O)N[C@H](C(=O)N[C@@H](CCCNC(=N)N)C(=O)N[C@@H](CCC(N)=O)C(=O)N[C@@H](CCCNC(=N)N)C(=O)N[C@@H](Cc1ccc(O)cc1)C(N)=O)[C@@H](C)O)C(C)C)[C@@H](C)O) [Compound 51] |
| 6.17 | Isovaleryl-APEK([Ahx-γGlu-C18 diacid])PEEIATPEELQRYYVSLRHYYNWLTRQRY-NH2 (SMILES CC[C@H](C)[C@H](NC(=O)[C@H](CCC(=O)O)NC(=O)[C@H](CCC(=O)O)NC(=O)[C@@H]1CCCN1C(=O)[C@H](CCCCNC(=O)CCCCCNC(=O)CC[C@H](NC(=O)CCCCCCCCCCCCCCCCC(=O)O)C(=O)O)NC(=O)[C@H](CCC(=O)O)NC(=O)[C@@H]1CCCN1C(=O)[C@H](C)NC(=O)CC(C)C)C(=O)N[C@@H](C)C(=O)N[C@H](C(=O)N1CCC[C@H]1C(=O)N[C@@H](CCC(=O)O)C(=O)N[C@@H](CCC(=O)O)C(=O)N[C@@H](CC(C)C)C(=O)N[C@@H](CCC(N)=O)C(=O)N[C@@H](CCCNC(=N)N)C(=O)N[C@@H](Cc1ccc(O)cc1)C(=O)N[C@@H](Cc1ccc(O)cc1)C(=O)N[C@H](C(=O)N[C@@H](CO)C(=O)N[C@@H](CC(C)C)C(=O)N[C@@H](CCCNC(=N)N)C(=O)N[C@@H](Cc1c[nH]cn1)C(=O)N[C@@H](Cc1ccc(O)cc1)C(=O)N[C@@H](Cc1ccc(O)cc1)C(=O)N[C@@H](CC(N)=O)C(=O)N[C@@H](Cc1c[nH]c2ccccc12)C(=O)N[C@@H](CC(C)C)C(=O)N[C@H](C(=O)N[C@@H](CCCNC(=N)N)C(=O)N[C@@H](CCC(N)=O)C(=O)N[C@@H](CCCNC(=N)N)C(=O)N[C@@H](Cc1ccc(O)cc1)C(N)=O)[C@@H](C)O)C(C)C)[C@@H](C)O) [Compound 45] |
| 11.6 | Isovaleryl-APEK([Ahx-γGlu-C18 diacid])PEEDATPEELQRYYVLLRHYYNWLTRQRY-NH2 (SMILES CC(C)CC(=O)N[C@@H](C)C(=O)N1CCC[C@H]1C(=O)N[C@@H](CCC(=O)O)C(=O)N[C@@H](CCCCNC(=O)CCCCCNC(=O)CC[C@H](NC(=O)CCCCCCCCCCCCCCCCC(=O)O)C(=O)O)C(=O)N1CCC[C@H]1C(=O)N[C@@H](CCC(=O)O)C(=O)N[C@@H](CCC(=O)O)C(=O)N[C@@H](CC(=O)O)C(=O)N[C@@H](C)C(=O)N[C@H](C(=O)N1CCC[C@H]1C(=O)N[C@@H](CCC(=O)O)C(=O)N[C@@H](CCC(=O)O)C(=O)N[C@@H](CC(C)C)C(=O)N[C@@H](CCC(N)=O)C(=O)N[C@@H](CCCNC(=N)N)C(=O)N[C@@H](Cc1ccc(O)cc1)C(=O)N[C@@H](Cc1ccc(O)cc1)C(=O)N[C@H](C(=O)N[C@@H](CC(C)C)C(=O)N[C@@H](CC(C)C)C(=O)N[C@@H](CCCNC(=N)N)C(=O)N[C@@H](Cc1c[nH]cn1)C(=O)N[C@@H](Cc1ccc(O)cc1)C(=O)N[C@@H](Cc1ccc(O)cc1)C(=O)N[C@@H](CC(N)=O)C(=O)N[C@@H](Cc1c[nH]c2ccccc12)C(=O)N[C@@H](CC(C)C)C(=O)N[C@H](C(=O)N[C@@H](CCCNC(=N)N)C(=O)N[C@@H](CCC(N)=O)C(=O)N[C@@H](CCCNC(=N)N)C(=O)N[C@@H](Cc1ccc(O)cc1)C(N)=O)[C@@H](C)O)C(C)C)[C@@H](C)O) [Compound 49] |
| 8.97 | Isovaleryl-APEK([Ahx-γGlu-C18 diacid])PEEDATPEEAQRYYVSLRHYYNWLTRQRY-NH2 (SMILES CC(C)CC(=O)N[C@@H](C)C(=O)N1CCC[C@H]1C(=O)N[C@@H](CCC(=O)O)C(=O)N[C@@H](CCCCNC(=O)CCCCCNC(=O)CC[C@H](NC(=O)CCCCCCCCCCCCCCCCC(=O)O)C(=O)O)C(=O)N1CCC[C@H]1C(=O)N[C@@H](CCC(=O)O)C(=O)N[C@@H](CCC(=O)O)C(=O)N[C@@H](CC(=O)O)C(=O)N[C@@H](C)C(=O)N[C@H](C(=O)N1CCC[C@H]1C(=O)N[C@@H](CCC(=O)O)C(=O)N[C@@H](CCC(=O)O)C(=O)N[C@@H](C)C(=O)N[C@@H](CCC(N)=O)C(=O)N[C@@H](CCCNC(=N)N)C(=O)N[C@@H](Cc1ccc(O)cc1)C(=O)N[C@@H](Cc1ccc(O)cc1)C(=O)N[C@H](C(=O)N[C@@H](CO)C(=O)N[C@@H](CC(C)C)C(=O)N[C@@H](CCCNC(=N)N)C(=O)N[C@@H](Cc1c[nH]cn1)C(=O)N[C@@H](Cc1ccc(O)cc1)C(=O)N[C@@H](Cc1ccc(O)cc1)C(=O)N[C@@H](CC(N)=O)C(=O)N[C@@H](Cc1c[nH]c2ccccc12)C(=O)N[C@@H](CC(C)C)C(=O)N[C@H](C(=O)N[C@@H](CCCNC(=N)N)C(=O)N[C@@H](CCC(N)=O)C(=O)N[C@@H](CCCNC(=N)N)C(=O)N[C@@H](Cc1ccc(O)cc1)C(N)=O)[C@@H](C)O)C(C)C)[C@@H](C)O) [Compound 54] |

From patent publication US20260015399A1 (Boehringer Ingelheim, published 2026)
